Starred links: 1 amine or outer side, 2 acyl side, 3 side chain; linkers in the order of their positions; H or OH if unused. Positions of bridges follow the written chain, without caps; N, C: chain ends. Non-standard residues stand in square brackets, D forms with d. *: point of attachment. C20 diacid = O=C(O)CCCCCCCCCCCCCCCCCCC(=O)*; 19‑carboxyheptadecanoyl = not defined here; C18 diacid = O=C(O)CCCCCCCCCCCCCCCCC(=O)*; γGlu = O=C(O)[C@H](CCC(=O)[*:2])N[*:1]; AEEA = NCCOCCOCC(=O)O
T1: rat amylin 3(a) receptor (rat calcitonin(a) receptor + rat RAMP3) (rat, UniProt P32214 25-516; Q9JJ73 23-147)
T1 sequence (looked up) 1: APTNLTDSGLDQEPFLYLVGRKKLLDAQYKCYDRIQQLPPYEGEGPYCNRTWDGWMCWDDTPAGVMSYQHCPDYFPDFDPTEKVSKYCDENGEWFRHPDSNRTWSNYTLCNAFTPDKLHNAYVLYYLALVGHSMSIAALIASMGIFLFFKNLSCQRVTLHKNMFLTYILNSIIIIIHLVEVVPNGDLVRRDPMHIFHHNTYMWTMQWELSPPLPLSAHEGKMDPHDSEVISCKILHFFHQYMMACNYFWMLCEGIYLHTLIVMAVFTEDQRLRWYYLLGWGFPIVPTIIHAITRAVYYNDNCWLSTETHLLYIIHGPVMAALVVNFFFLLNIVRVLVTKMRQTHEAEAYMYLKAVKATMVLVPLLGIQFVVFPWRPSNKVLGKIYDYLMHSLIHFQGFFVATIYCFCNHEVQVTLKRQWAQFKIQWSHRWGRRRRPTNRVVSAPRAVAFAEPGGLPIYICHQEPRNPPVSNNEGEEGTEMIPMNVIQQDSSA
T1 sequence (looked up) 2: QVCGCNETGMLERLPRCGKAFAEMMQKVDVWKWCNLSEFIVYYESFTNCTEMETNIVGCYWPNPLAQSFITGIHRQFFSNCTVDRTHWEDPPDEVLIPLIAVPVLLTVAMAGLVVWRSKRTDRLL

T2: rat calcitonin (a) receptor (rat, UniProt P32214 25-516)
T2 sequence (looked up): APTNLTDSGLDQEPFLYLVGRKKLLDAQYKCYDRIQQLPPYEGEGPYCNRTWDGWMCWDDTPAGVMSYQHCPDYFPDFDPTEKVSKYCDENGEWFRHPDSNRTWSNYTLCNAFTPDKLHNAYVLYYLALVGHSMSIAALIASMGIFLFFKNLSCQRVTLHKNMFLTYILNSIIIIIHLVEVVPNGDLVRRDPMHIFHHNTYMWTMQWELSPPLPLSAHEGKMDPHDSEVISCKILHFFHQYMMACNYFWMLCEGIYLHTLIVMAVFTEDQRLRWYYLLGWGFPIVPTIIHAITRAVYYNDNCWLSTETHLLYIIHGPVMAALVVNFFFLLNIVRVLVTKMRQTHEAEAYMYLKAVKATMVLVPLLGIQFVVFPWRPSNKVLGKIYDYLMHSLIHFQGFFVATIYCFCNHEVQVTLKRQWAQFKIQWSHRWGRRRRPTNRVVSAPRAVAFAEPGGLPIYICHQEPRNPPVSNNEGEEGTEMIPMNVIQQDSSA

T3: human calcitonin (a) receptor (human, UniProt P30988 25-474)
T3 sequence (looked up): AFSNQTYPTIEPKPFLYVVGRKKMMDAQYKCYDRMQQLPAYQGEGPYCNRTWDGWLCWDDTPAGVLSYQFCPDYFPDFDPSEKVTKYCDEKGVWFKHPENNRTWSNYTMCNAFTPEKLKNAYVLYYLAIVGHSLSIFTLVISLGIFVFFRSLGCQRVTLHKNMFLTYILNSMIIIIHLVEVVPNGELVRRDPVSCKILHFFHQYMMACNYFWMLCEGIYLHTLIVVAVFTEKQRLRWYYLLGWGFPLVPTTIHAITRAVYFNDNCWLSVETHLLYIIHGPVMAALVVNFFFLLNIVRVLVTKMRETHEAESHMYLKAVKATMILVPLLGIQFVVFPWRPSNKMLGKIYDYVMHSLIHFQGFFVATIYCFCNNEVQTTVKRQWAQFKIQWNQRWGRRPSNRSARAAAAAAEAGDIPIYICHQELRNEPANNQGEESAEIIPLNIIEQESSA

T4: human amylin 3(a) receptor (human calcitonin receptor + RAMP-3) (human, UniProt P30988 25-474; O60896 24-148)
T4 sequence (looked up) 1: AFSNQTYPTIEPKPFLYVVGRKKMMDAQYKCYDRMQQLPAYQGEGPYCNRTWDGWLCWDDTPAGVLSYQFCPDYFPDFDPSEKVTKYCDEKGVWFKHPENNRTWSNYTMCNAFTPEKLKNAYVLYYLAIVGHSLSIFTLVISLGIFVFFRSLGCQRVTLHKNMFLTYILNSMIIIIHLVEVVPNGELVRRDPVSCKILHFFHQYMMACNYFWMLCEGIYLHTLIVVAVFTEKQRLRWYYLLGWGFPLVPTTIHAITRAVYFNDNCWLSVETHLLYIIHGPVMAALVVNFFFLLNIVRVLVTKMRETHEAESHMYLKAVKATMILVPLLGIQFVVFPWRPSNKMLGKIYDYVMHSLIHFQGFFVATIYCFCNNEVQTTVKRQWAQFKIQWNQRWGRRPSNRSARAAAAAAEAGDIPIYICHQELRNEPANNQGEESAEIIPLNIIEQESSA
T4 sequence (looked up) 2: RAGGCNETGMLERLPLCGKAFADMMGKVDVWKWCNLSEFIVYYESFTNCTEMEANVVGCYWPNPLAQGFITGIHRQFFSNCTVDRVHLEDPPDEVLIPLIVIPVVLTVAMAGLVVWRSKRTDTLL


Key:
Test in all cases: cell-based or functional assay
[1] = target: T1, rat amylin 3(a) receptor (rat …)
[2] = target: T2, rat calcitonin (a) receptor
[3] = target: T3, human calcitonin (a) receptor
[4] = target: T4, human amylin 3(a) receptor (human …)

Row | Binder | Amylin receptor rat EC50 [1] [nM] | CTa receptor rat EC50 [2] [nM] | CTa receptor human EC50 [3] [nM] | Amylin receptor human EC50 [4] [nM]
1 | {19‑carboxyheptadecanoyl-γGlu-AEEA-AEEA}-[dR][dR]KCNTATCATQRLAEFLHRSSNNFGPILPPTNVGSNTY-NH2 (disulfide 4-9; reading uncertain; also: printed as N-alpha-[2-(2-{2-[2-(2-{2-[(S)-4-Carboxy-4-(19-carboxyheptadecanoylamino)butyrylamino]ethoxy}ethoxy)acetylamino]ethoxy}ethoxy)acetyl]-D-Arg-D-Arg-[Glu14,His17,Arg18]-pramlintide) | 0.132 | 1.89 | 0.642 | 0.0832
2 | {19‑carboxyheptadecanoyl-γGlu-AEEA-AEEA}-[dR][dR]KCNTATCATQRLAEFLHRSSANFGPILPPTNVGSSTY-NH2 (disulfide 4-9; reading uncertain; also: printed as N-alpha-[2-(2-{2-[2-(2-{2-[(S)-4-Carboxy-4-(19-carboxyheptadecanoylamino)butyrylamino]ethoxy}ethoxy)acetylamino]ethoxy}ethoxy)acetyl]-D-Arg-D-Arg-[Glu14,His17,Arg18,Ala21,Ser35]-pramlintide) | 0.233 | 4.48 | 1.11 | 0.149
3 | {C18 diacid-γGlu}-EKCNTATCATQRLAEFLHHSSNNFGPILPPTNVGSNTY-NH2 (disulfide 3-8; SMILES CC[C@H](C)[C@H](NC(=O)[C@@H]1CCCN1C(=O)CNC(=O)[C@H](Cc1ccccc1)NC(=O)[C@H](CC(N)=O)NC(=O)[C@H](CC(N)=O)NC(=O)[C@H](CO)NC(=O)[C@H](CO)NC(=O)[C@H](Cc1c[nH]cn1)NC(=O)[C@H](Cc1c[nH]cn1)NC(=O)[C@H](CC(C)C)NC(=O)[C@H](Cc1ccccc1)NC(=O)[C@H](CCC(=O)O)NC(=O)[C@H](C)NC(=O)[C@H](CC(C)C)NC(=O)[C@H](CCCNC(=N)N)NC(=O)[C@H](CCC(N)=O)NC(=O)[C@@H](NC(=O)[C@H](C)NC(=O)[C@@H]1CSSC[C@H](NC(=O)[C@H](CCCCN)NC(=O)[C@H](CCC(=O)O)NC(=O)CC[C@H](NC(=O)CCCCCCCCCCCCCCCCC(=O)O)C(=O)O)C(=O)N[C@@H](CC(N)=O)C(=O)N[C@@H]([C@@H](C)O)C(=O)N[C@@H](C)C(=O)N[C@@H]([C@@H](C)O)C(=O)N1)[C@@H](C)O)C(=O)N[C@@H](CC(C)C)C(=O)N1CCC[C@H]1C(=O)N1CCC[C@H]1C(=O)N[C@H](C(=O)N[C@@H](CC(N)=O)C(=O)N[C@H](C(=O)NCC(=O)N[C@@H](CO)C(=O)N[C@@H](CC(N)=O)C(=O)N[C@H](C(=O)N[C@@H](Cc1ccc(O)cc1)C(N)=O)[C@@H](C)O)C(C)C)[C@@H](C)O) [N-alpha-[(S)-4-Carboxy-4-(17-carboxyheptadecanoylamino)butyryl]-Glu-[Glu14,His17]-pramlintide] | 0.135 | 2.43 | 0.274 | 0.0739
4 | {C18 diacid-γGlu}-KCNTATCATQRLAEFLHHSSNNFGPILPPTNVGSNTY-NH2 (disulfide 2-7; not fully specified; printed as N-alpha-[(S)-4-Carboxy-4-(17-carboxyheptadecanoylamino)butyryl]-[Glu14,His17]-pramlintide) [N-alpha-[(S)-4-Carboxy-4-(17-carboxyheptadecanoylamino)butyryl]-[Glu14,His17]-pramlintide] | 0.122 | 0.433 | 0.0792 | 0.0469
5 | {C18 diacid-γGlu}-HCNTATCATQRLAEFLHHSSNNFGPILPPTNVGSNTY-NH2 (disulfide 2-7; not fully specified; printed as N-alpha-[(S)-4-Carboxy-4-(17-carboxyheptadecanoylamino)butyryl]-[His1,Glu14,His17]-pramlintide) [N-alpha-[(S)-4-Carboxy-4-(17-carboxyheptadecanoylamino)butyryl]-[His1,Glu14,His17]-pramlintide] | 0.015 | 0.375 | 0.112 | 0.0425
6 | {C20 diacid-γGlu}-KCNTATCATQRLAEFLHHSSNNFGPILPPTNVGSNTP-NH2 (disulfide 2-7; not fully specified; printed as N-alpha-[(S)-4-Carboxy-4-(19-carboxynonadecanoylamino)butyryl]-[Glu14,His17,Pro37]-pramlintide) [N-alpha-[(S)-4-Carboxy-4-(19-carboxynonadecanoylamino)butyryl]-[Glu14,His17,Pro37]-pramlintide] | 0.16 | 0.076 | 0.0537 | 0.062
7 | {C20 diacid-γGlu}-KCNTATCATQRLAEFLHHSSNNFGPILPPTNVGSHTY-NH2 (disulfide 2-7; SMILES CC[C@H](C)[C@H](NC(=O)[C@@H]1CCCN1C(=O)CNC(=O)[C@H](Cc1ccccc1)NC(=O)[C@H](CC(N)=O)NC(=O)[C@H](CC(N)=O)NC(=O)[C@H](CO)NC(=O)[C@H](CO)NC(=O)[C@H](Cc1c[nH]cn1)NC(=O)[C@H](Cc1c[nH]cn1)NC(=O)[C@H](CC(C)C)NC(=O)[C@H](Cc1ccccc1)NC(=O)[C@H](CCC(=O)O)NC(=O)[C@H](C)NC(=O)[C@H](CC(C)C)NC(=O)[C@H](CCCNC(=N)N)NC(=O)[C@H](CCC(N)=O)NC(=O)[C@@H](NC(=O)[C@H](C)NC(=O)[C@@H]1CSSC[C@H](NC(=O)[C@H](CCCCN)NC(=O)CC[C@H](NC(=O)CCCCCCCCCCCCCCCCCCC(=O)O)C(=O)O)C(=O)N[C@@H](CC(N)=O)C(=O)N[C@@H]([C@@H](C)O)C(=O)N[C@@H](C)C(=O)N[C@@H]([C@@H](C)O)C(=O)N1)[C@@H](C)O)C(=O)N[C@@H](CC(C)C)C(=O)N1CCC[C@H]1C(=O)N1CCC[C@H]1C(=O)N[C@H](C(=O)N[C@@H](CC(N)=O)C(=O)N[C@H](C(=O)NCC(=O)N[C@@H](CO)C(=O)N[C@@H](Cc1c[nH]cn1)C(=O)N[C@H](C(=O)N[C@@H](Cc1ccc(O)cc1)C(N)=O)[C@@H](C)O)C(C)C)[C@@H](C)O) [N-alpha-[(S)-4-Carboxy-4-(19-carboxynonadecanoylamino)butyryl]-[Glu14,His17,His35]-pramlintide] | 0.262 | 0.673 | 0.163 | 0.152
8 | {C20 diacid-γGlu}-EKCNTATCATQRLAEFLHHSSNNFGPILPPTNVGSHTY-NH2 (disulfide 3-8; not fully specified; printed as N-alpha-[(S)-4-Carboxy-4-(19-carboxynonadecanoylamino)butyryl]-Glu-[Glu14,His17,His35]-pramlintide) [N-alpha-[(S)-4-Carboxy-4-(19-carboxynonadecanoylamino)butyryl]-Glu-[Glu14,His17,His35]-pramlintide] | 0.643 | 4.97 | 0.352 | 0.299
9 | {C20 diacid-γGlu}-KCNTATCATQRLAEFLRHSSNNFGPILPPTNVGSHTY-NH2 (disulfide 2-7; SMILES CC[C@H](C)[C@H](NC(=O)[C@@H]1CCCN1C(=O)CNC(=O)[C@H](Cc1ccccc1)NC(=O)[C@H](CC(N)=O)NC(=O)[C@H](CC(N)=O)NC(=O)[C@H](CO)NC(=O)[C@H](CO)NC(=O)[C@H](Cc1c[nH]cn1)NC(=O)[C@H](CCCNC(=N)N)NC(=O)[C@H](CC(C)C)NC(=O)[C@H](Cc1ccccc1)NC(=O)[C@H](CCC(=O)O)NC(=O)[C@H](C)NC(=O)[C@H](CC(C)C)NC(=O)[C@H](CCCNC(=N)N)NC(=O)[C@H](CCC(N)=O)NC(=O)[C@@H](NC(=O)[C@H](C)NC(=O)[C@@H]1CSSC[C@H](NC(=O)[C@H](CCCCN)NC(=O)CC[C@H](NC(=O)CCCCCCCCCCCCCCCCCCC(=O)O)C(=O)O)C(=O)N[C@@H](CC(N)=O)C(=O)N[C@@H]([C@@H](C)O)C(=O)N[C@@H](C)C(=O)N[C@@H]([C@@H](C)O)C(=O)N1)[C@@H](C)O)C(=O)N[C@@H](CC(C)C)C(=O)N1CCC[C@H]1C(=O)N1CCC[C@H]1C(=O)N[C@H](C(=O)N[C@@H](CC(N)=O)C(=O)N[C@H](C(=O)NCC(=O)N[C@@H](CO)C(=O)N[C@@H](Cc1c[nH]cn1)C(=O)N[C@H](C(=O)N[C@@H](Cc1ccc(O)cc1)C(N)=O)[C@@H](C)O)C(C)C)[C@@H](C)O) [N-alpha-[(S)-4-Carboxy-4-(19-carboxynonadecanoylamino)butyryl]-[Glu14,Arg17,His35]-pramlintide] | 0.511 | 2.84 | 0.387 | 0.111

Reference: patent publication US20130005646A1 (Novo Nordisk, published 2013)
